Assay results as given in paper PMC6220978, “Induced conformational changes activate the peptidoglycan synthase PBP1B” (Molecular Microbiology, 2018).

Columns and labels:
Experiment in all cases: SPR; PBP1B versions immobilised to the chip surface; CpoB versions injected from either 3.9 nM to 2 μM or from 78 nM to 40 μM; apparent KD by non-linear regression, at least three independent experiments
Details in all cases: both partners purified
PBP1B N112G = biological target: T1, PBP1B N112G (E. coli, UniProt P02919 46-844, N112G)
T1 construct: PBP1B, E. coli, residues 46-844, made by mutagenesis of pDML924; source: E. coli BL21(DE3), purified (membrane extract, HisTrap, thrombin, HiTrap SP ion exchange)
T1 sequence (looked up): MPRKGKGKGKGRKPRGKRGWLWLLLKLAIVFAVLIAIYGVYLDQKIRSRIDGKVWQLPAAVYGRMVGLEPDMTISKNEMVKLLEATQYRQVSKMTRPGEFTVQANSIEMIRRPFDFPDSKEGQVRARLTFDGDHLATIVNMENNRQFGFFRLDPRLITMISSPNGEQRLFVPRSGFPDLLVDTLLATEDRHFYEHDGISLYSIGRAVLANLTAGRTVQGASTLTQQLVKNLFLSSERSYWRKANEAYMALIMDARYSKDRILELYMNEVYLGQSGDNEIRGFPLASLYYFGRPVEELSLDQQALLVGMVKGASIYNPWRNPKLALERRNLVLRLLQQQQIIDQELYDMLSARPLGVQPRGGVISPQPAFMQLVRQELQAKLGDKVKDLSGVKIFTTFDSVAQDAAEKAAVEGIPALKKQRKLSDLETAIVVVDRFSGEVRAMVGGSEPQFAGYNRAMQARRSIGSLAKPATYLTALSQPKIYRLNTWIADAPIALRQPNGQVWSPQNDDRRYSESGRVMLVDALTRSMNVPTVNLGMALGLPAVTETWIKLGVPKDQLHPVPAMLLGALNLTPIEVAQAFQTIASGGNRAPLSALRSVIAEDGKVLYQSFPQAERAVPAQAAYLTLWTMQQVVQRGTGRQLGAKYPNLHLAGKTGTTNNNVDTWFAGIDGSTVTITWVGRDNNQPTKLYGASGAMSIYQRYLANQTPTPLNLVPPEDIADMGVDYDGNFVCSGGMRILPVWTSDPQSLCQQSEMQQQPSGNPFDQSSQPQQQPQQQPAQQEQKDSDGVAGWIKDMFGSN

[1] = biological target: T2, PBP1B (wild type, PBP1B^46-844) (E. coli, UniProt P02919 46-844)
T2 construct: PBP1B, E. coli, residues 46-844, encoded on pDML924; Immobilised on the SPR chip as in Egan et al. 2014 / Gray et al. 2015; also called WT PBP1B; WT; source: E. coli BL21(DE3), purified (membrane extract, HisTrap, thrombin, HiTrap SP ion exchange)
T2 sequence (looked up): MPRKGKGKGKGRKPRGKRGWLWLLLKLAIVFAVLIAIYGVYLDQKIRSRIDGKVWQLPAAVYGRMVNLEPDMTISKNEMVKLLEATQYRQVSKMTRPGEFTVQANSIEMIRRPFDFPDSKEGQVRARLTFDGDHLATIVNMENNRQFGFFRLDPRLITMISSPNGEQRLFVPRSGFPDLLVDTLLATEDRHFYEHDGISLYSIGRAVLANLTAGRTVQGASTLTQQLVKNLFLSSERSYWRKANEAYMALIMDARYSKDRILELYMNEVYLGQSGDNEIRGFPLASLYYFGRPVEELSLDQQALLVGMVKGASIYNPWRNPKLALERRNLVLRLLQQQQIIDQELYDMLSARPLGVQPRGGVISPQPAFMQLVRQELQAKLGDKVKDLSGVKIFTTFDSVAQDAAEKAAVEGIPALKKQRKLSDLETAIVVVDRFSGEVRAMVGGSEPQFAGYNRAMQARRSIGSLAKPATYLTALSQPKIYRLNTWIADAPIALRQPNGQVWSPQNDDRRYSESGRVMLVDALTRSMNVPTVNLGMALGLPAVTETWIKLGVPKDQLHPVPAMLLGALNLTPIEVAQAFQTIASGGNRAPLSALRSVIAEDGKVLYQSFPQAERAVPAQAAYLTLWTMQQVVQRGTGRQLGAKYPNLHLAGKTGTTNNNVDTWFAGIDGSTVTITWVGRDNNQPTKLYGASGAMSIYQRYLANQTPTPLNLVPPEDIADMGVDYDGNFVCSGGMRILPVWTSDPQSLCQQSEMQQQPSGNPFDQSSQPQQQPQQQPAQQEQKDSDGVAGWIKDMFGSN

PBP1B I202F = biological target: T3, PBP1B I202F (E. coli, UniProt P02919 46-844, I202F)
T3 construct: PBP1B, E. coli, residues 46-844, made by mutagenesis of pDML924; Substitution first found in the suppressor screen of Markovski et al. 2016 (LpoB bypass); source: E. coli BL21(DE3), purified (membrane extract, HisTrap, thrombin, HiTrap SP ion exchange)
T3 sequence (looked up): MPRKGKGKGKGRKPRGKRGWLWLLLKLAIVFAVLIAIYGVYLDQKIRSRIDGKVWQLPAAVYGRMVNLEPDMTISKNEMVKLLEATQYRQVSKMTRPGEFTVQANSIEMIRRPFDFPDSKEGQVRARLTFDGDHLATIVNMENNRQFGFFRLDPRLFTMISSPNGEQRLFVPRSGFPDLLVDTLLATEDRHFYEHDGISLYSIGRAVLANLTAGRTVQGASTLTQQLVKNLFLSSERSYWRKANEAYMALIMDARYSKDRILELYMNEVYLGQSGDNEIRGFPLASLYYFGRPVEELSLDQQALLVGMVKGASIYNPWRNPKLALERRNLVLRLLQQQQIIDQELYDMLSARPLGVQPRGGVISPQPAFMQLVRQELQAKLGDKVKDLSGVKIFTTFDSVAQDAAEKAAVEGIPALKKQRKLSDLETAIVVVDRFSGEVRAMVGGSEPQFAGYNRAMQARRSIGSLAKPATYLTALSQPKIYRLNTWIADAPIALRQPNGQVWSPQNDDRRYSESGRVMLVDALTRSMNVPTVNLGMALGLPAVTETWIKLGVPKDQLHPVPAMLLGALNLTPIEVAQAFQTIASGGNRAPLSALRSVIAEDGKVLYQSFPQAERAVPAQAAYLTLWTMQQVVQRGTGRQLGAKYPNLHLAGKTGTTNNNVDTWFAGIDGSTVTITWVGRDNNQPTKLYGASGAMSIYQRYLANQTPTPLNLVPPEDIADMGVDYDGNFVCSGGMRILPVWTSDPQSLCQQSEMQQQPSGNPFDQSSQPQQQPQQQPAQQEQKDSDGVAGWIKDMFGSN

Kd (PBP1B N112G): 89 nM | Kd [1]: 94 nM | Kd (PBP1B I202F): > 2000 nM
B1: CpoB (full length) (natural protein, E. coli, UniProt P45955 27-263, looked up)
chain: QAPISSVGSGSVEDRVTQLERISNAHSQLLTQLQQQLSDNQSDIDSLRGQIQENQYQLNQVVERQKQILLQIDSLSSGGAAAQSTSGDQSGAAASTTPTADAGTANAGAPVKSGNANTDYNAAIALVQDKSRQDDAMVAFQNFIKNYPDSTYLPNANYWLGQLNYNKGKKDDAAYYFASVVKNYPKSPKAADAMFKVGVIMQDKGDTAKAKAVYQQVISKYPGTDGAKQAQKRLNAM
notes: CpoB, E. coli; The coiled-coil construct begins at residue 27, so the purified 'full length' protein may lack the signal peptide (surmise); source: E. coli BL21(DE3), purified (HisTrap, Superdex 200), as in Gray et al. 2015
